The results in this text go back to FireProtDB (doi:10.1021/bi015547k).

B1: Steroid Delta-isomerase, P07445 (parent)
chain: MNLPTAQEVQGLMARYIELVDVGDIEAIVQMYADDATVEDPFGQPPIHGREQIAAFYRQGLGGGKVRACLTGPVRASHNGCGAMPFRVEMVWNGQPCALDVIDVMRFDEHGRIQTMQAYWSEVNLSVREPQ

In the series the parent is B1. The following applies: Pseudomonas putida; pH 7; 25 °C; Urea; CD; potassium phosphate 20 mM; reversible: yes; structure 1OH0; whole UniProt chain shown.

Consider MNLPTAQEVQGLMARYIELVDVGDIEAIVQMSADDATVEDPFGQPPIHGREQIAAFYRQGLGGGKVRACLTGPVRASHNGCGAMPFRVEMVWNGQPCALDVIDVMRFDEHGRIQTMQAYWSEVNLSVREPQ [Y32S], for which the denaturant m value is 2.55 kcal/mol/M, the “denaturant midpoint (higher = more stable)” value (from here on “denaturant midpoint”) is 1.56 M and the unfolding free energy came to 10.6 kcal/mol.

Consider MNLPTAQEVQGLMARSIELVDVGDIEAIVQMYADDATVEDPFGQPPIHGREQIAAFYRQGLGGGKVRACLTGPVRASHNGCGAMPFRVEMVWNGQPCALDVIDVMRFDEHGRIQTMQAYWSEVNLSVREPQ [Y16S], for which the denaturant m value came to 2.93 kcal/mol/M, the “denaturant midpoint” value was determined as 1.99 M and the unfolding free energy came out at 12.4 kcal/mol.

For MNLPTAQEVQGLMARYIELVDVGDIEAIVQMYADDATVEDPFGQPPIHGREQIAAFSRQGLGGGKVRACLTGPVRASHNGCGAMPFRVEMVWNGQPCALDVIDVMRFDEHGRIQTMQAYWSEVNLSVREPQ [Y57S], the “ddG of mutation (higher = less stable)” value was 9.5 kcal/mol, the denaturant m value was 3.43 kcal/mol/M, the “denaturant midpoint” value was 2.41 M and the unfolding free energy turned out to be 14.8 kcal/mol.
